Assay results: patent US20140093477A1

Legend:
[1] = molecular target: fibronectin from human plasma (full-length soluble fibronectin) (human) (UniProt P02751); assay: fluorescence saturation binding, fluorophore-labeled MBP-MAM on immobilized fibronectin (coated plates)
[2] = molecular target: fibronectin on host cells (UniProt P02751); assay: cell-based or functional assay

Substance	Kd [1]	delay of attachment of labeled MAM7 protein to trypsin-treated host cells [2]
MBP-MAM6 (6xHis-MBP-Cys-six mce domains), Alexa Fluor 488-labeled	36 µM	
MBP-MAM7 (6xHis-MBP-Cys-MAM7, seven mce domains), Alexa Fluor 488-labeled (from UniProt P0AEX9 27-392)		1 h
